Results published in patent US20100143379A1 (priority 2005, published 2010).

What was measured:
Format in all cases: cell-based
Src = test: Tyrosine kinase phosphorylation in COS-7/M6 transformants and MEFs (immunoblot); conditions: COS-7 transformants and MEFs
Excerpt: Two members of the non-receptor, protein tyrosine kinase family, p56^lck and c-Src (Src), may physically associate with the intracytoplasmic domain of CD44 (Elaimin I. Taher (1996). J. Biol. Chem. 271:2863-2867 and Bourguignon et al. (2001). J. Biol. Chem. 276:7327-7336), and either kinase may lead to downstream ERK1/2 phosphorylation via a Ras-Raf-MEK-dependent pathway (Ishida et al. (1998). Circ Res 82:7-12; Migliaccio et al. (2000). EMBO J. 19:5406-5417; and Mahabeleshwar et al. (2003). J. Biol. Chem. 278:52598-52612). […] The level of p56^lck phosphorylation appeared less in the MEFs than in the COS-7 cells, which may be attributed to the lower level of expression of the p56^lck kinase in cells of fibroblast lineage (Oikawa et al. (2001). Immunol. 104:162-167), or to a higher activation and coupling efficiency of CD44 when over-expressed in COS-7 cells.
(§1) Signal Transduction Assays. […] The human CD74 ectodomain (CD74^73-232) was prepared recombinantly in soluble form (sCD74) as described previously (Leng et al. (2003). J Exp Med 197:1467-1476). […] Cells then were harvested and lysed in buffer containing 50 mM Hepes, pH7.5, 150 mM NaCl, 1.5 mM MgCl2, 1 mM EGTA, 1% Glycerol and 1% Triton X-100, and freshly added phosphatase and proteinase inhibitors (1 mM orthovanandate, 10 mM NaF, 10 μg/ml leupeptin, 25 μg/ml aprotinin and 50 μg/ml PMSF). […]

p53 = test: Cytoplasmic Ser15-phosphorylated p53 content, COS-7 cells; conditions: during apoptosis induction
Experimental: Apoptosis Studies. […] Cell lysates were collected, and caspase-3 activity analyzed using a colorimetric assay kit (R&D Systems). Cytoplasmic p53 content was analyzed as described previously (Mitchell et al. (2002). Proc Natl Acad Sci USA 99:345-350) by immunoblotting of mouse cytosolic fractions using a pair of anti-phospho-p53 (Ser15) (R&D Systems) and total anti-p53 antibodies (Cell Signaling); and for COS-7 cells, the anti-p53 (Ser15) and total anti-p53 antibodies (Cell Signaling). In vivo apoptosis studies followed the procedures of (Mitchell et al. (2002). Proc Natl Acad Sci USA 99:345-350), and were conducted after i.p injection of 15 mg/kg lipopolysaccharide (E. coli 0111:B4; Sigma). Mice were sacrificed 24 hrs after priming and the peritoneal macrophage cells collected and immediately analyzed for apoptosis by an ELISA that detects cytoplasmic oligonucleosomes (Roche Diagnostics). Primary macrophages also were immunostained by Alexa 488-conjugated, Annexin V (Invitrogen), and apoptotic cells enumerated by fluorescence microscopy.

[1] = system: Friend murine erythroleukemia (MEL) cell line; test: MEL cell cytodifferentiation and hemoglobin content
Experimental: The specificity of this effect was verified by the application of a neutralizing, anti-MIF mAb.
Erythroid Progenitor Cell Lines. The Friend murine erythroleukemia (MEL) cell line was cultured in Dulbecco's modified Eagle's medium supplemented with 10% FBS. Differentiation was induced with dimethyl sulfoxide differentiation medium for 4 days as described (Terada et al. 1977. Proc. Natl. Acad. Sci. USA 74:248-252). Hemoglobin synthesis was assessed by cyto-centrifugation onto glass slides followed by staining with benzidine (Worthington), and by the hemoglobin kit from Sigma.

[2] = system: human K562 progenitor cell line; test: K562 terminal erythropoietic differentiation (DAF stain) and hemoglobin content
Experimental: The neutralizing anti-MIF mAb was added at 100 μg/ml. DAF positive cells were enumerated and expressed as fold-change over total, input cells. FIG. 2B: cellular hemoglobin content of cultured K562 progenitor cells. […] Each value represents the mean±SD of at least three different experiments. *P<0.01 versus corresponding controls.
The human K562 progenitor cell line (ATCC, CCL-243) was cultured in RPMI/10% FBS supplemented with penicillin and streptomycin. For differentiation, sodium butyrate (AldRick, Milwaukee, Wis.) was added in the medium (Witt et al. 2000. Blood 95:2391-2396). Terminal erythropoietic differentiation was measured as described by McGukin et al. (McGuckin et al. 2003. European Journal of Haematology 70:106-114) and positive cells enumerated after staining with 2,7-diaminofluorene (Sigma, St. Louis, Mo.). To quantify hemoglobin synthesis, the cells were centrifuged and washed in PBS, and the cell pellet resuspended in lysis buffer (100 mM potassium phosphate pH 7.8, 0.2% Triton X-100) before disruption by aspiration through a 21-gauge needle. After microcentrifugation, the supernatant was collected and the hemoglobin concentration was determined using the hemoglobin kit from Sigma. Cell viability was assessed by trypan blue dye exclusion and found to be equivalent (85-90% viability) between all samples studied.

ERK-1/2 = ERK-1/2 phosphorylation in murine embryonic fibroblasts and peritoneal macrophages; conditions: wild-type, CD74-KO and CD44-KO cells
Experimental: Whole cell lysates then were prepared and analyzed by Western blotting with specific anti-phospho-ERK-1/2 (p-ERK1/2) or anti-total ERK/1/2 antibodies. […] Peritoneal macrophages were stimulated for 10 mins (Mitchell et al. (1999). J Biol Chem 274:18100-6) and the lysates then analyzed by Western blotting. […] Recombinant, sCD74 was incubated with MN overnight in a 3:1 molar ratio prior to addition to cells for 10 mins. Epidermal growth factor (EGF) was used as a positive control for ERK-1/2 phosphorylation (Yamamoto et al. (2003). Develop Biol 260:512-521). Data shown are representative of three experiments.
as §1, with “PMSF). For immunoblotting, 15-20 μg of cell lysate proteins were separated by 10% SDS-PAGE and transferred to PVDF Immobilon-P transfer membranes (Millipore).” for “PMSF).”

B1: MIF: macrophage migration inhibitory factor; recombinant mouse or human MIF purified essentially free of endotoxin (protein)
chain: PMFIVNTNVPRASVPDGFLSELTQQLAQATGKPPQYIAVHVVPDQLMAFGGSSEPCALCSLHSIGKIGGAQNRSYSKLLCGLLAERLRISPDRVYINYYDMNAANVGWNNSTFA
In the case of B1, the Src phosphorylation (Src) is reported as “An increase in the phosphorylation of the Src kinase was not detected”, the “intracytoplasmic content of Ser15-phosphorylated p53” value (p53) is reported as “reduction in the intracytoplasmic content” and the “reduction of hemoglobin content” value ([1]; 20 ng/ml) is reported as 12%. The “reduction of hemoglobin content” value ([1]; 100 ng/ml) was 20%, the “cytodifferentiation response (benzidine staining)” value ([1]; 200 ng/ml) was “decreased the cytodifferentiation response” and the “terminal erythropoietic differentiation (DAF stain)” value ([2]; MIF 200 ng/ml for 96 hrs) was “inhibited the terminal erythropoietic differentiation”. The hemoglobin production ([2]; cellular hemoglobin content of cultured K562 progenitor cells) was “inhibition of cytodifferentiation and hemoglobin production” and the ERK-1/2 phosphorylation (ERK-1/2) was “induced ERK-1/2 phosphorylation only in wild-type cells”.
